This note sets out measurements from paper PMC6316451.

Where two headings read alike, the source gives them in different places.

Test [1] deals with HIV-1 capsid protein CA N21C/A22C (HIV-1 NL4-3). The test can be described thus: cross-linking; engineered disulfide cross-links read by non-reducing SDS-PAGE; after assembly: purified protein at 1 mg/mL (also about 4 and 10 mg/mL) dialyzed into 50 mM Tris-HCl, pH 8.0, 1 M NaCl overnight at 4 °C, no reductant.
Test [2] shares this target. The test is described as above. This is another data set of the same source.

As a reminder, the stoichiometry N is a count of units in the complex or per binding partner. Consider “HIV-1 capsid protein CA N21C/A22C (natural protein)”, for which the stoichiometry N in test [1] was found to be 6; in test [2] it was 5.
